Measured values from patent US20260286413A1, “HYALURONAN SYNTHESIS, SECRETION AND LENGTH CONTROL” (UNIVERSITY OF VIRGINIA, priority 2023, published 2026).
Each block holds one molecule with its values, some of them ahead of it.

Experiments:
[1] = system: Hyaluronic acid synthesis; details: cited from earlier work
[2] = target: T1, X1HAS1 (Xenopus laevis, UniProt P13563); assay: Substrate turnover rate quantification (UDP release, enzyme-coupled assay); format: biochemical
T1 construct: dodeca-histidine (His12) (N); made in house; host or cells: Spodoptera frugiperda Sf9 cells (baculovirus)
T1 sequence (P13563 1-588): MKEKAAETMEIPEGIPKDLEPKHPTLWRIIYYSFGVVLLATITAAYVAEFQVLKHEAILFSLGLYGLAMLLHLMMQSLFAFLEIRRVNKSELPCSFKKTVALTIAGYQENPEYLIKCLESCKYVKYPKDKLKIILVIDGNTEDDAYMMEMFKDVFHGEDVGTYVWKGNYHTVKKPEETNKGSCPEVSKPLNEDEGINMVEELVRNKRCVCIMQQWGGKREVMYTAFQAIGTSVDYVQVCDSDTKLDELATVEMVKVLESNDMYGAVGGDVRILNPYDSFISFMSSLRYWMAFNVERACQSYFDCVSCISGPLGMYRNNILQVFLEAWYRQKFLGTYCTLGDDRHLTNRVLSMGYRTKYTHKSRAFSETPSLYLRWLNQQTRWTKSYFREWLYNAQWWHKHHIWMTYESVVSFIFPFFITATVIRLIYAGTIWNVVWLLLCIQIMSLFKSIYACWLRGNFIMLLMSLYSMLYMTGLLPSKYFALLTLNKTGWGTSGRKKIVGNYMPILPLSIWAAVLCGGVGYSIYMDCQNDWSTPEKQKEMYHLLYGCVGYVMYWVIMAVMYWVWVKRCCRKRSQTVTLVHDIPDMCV
Experimental: UDP release during HA synthesis was quantified using an enzyme-coupled assay as previously described (10, 13). Depletion of NADH was monitored at 340 nm every 60 s for 3 hours at 37° C. in a SpectraMax instrument. The raw data was processed in MS Excel and a linear phase of each reaction was determined. The rate of NADH depletion was converted to pmoles of UDP released using a UDP standardized plot (FIG. S1C) for Michaelis-Menten constant determination using GraphPad Prism. For substrate turnover rate quantification of X1HAS1 mutants, pmoles of released UDP were converted to the number of corresponding substrate turnovers per molecule of X1HAS1, per minute. Data is presented relative to wild type activity. All experiments were performed in four to eight replicates and error bars represent standard deviation from the means.
HAS transfers the UDP-activated glycosyl unit (the donor sugar) to the non-reducing end of the nascent HA polymer (the acceptor sugar). This reaction generates UDP and elongated HA as reaction products (FIG. 1A). Catalytic activity can be assessed by monitoring the release of UDP in an enzyme-coupled reaction, as previously described (10, 13), or quantifying HA, either radiometrically or by dye staining following electrophoresis.

[3] = system: HAS isoforms; details: cited from earlier work
[4] = target: T1, X1HAS1; assay: Electrophoretic HA size determination (agarose gel, Stains-all) of in vitro synthesized HA; format: biochemical
Experimental: To assess the size of HA synthesized by X1HAS1, similar reaction conditions were applied to the ones described above. […] […] Controls were carried out by digesting the synthesized polymers with hyaluronidase. Synthesis reactions were mixed with SDS-PAGE loading dye and applied to a 1% agarose gel (Ultra-pure agarose, Invitrogen) casted in an Owl B2 system (ThermoFisher). […] After the run, the gel was equilibrated in 50% ethanol for 1.5 h and subjected to staining in 0.05% Stains-all (Sigma) in 50% ethanol overnight under light-protection. Post-staining background was reduced by soaking the gel in 20% ethanol for 3-7 days in the dark. The migration of the synthesized HA species was compared to HA standards from Streptococcus equi (Sigma), as well as enzymatically generated ladders: HA LoLadder and HA HiLadder (Hyalose).

Molecule: Cc1cc(=O)oc2cc(O)ccc12 [4-methylumbelliferone]
effect on hyaluronic acid synthesis [1]: inhibited

Molecule: CC(=O)N[C@H]1[C@@H](OP(=O)(O)OP(=O)(O)OC[C@H]2O[C@@H](n3ccc(=O)[nH]c3=O)[C@H](O)[C@@H]2O)O[C@H](CO)[C@@H](O)[C@@H]1O [UDP-GlcNAc, reference compound]
Km ([2]; one substrate titrated at saturating concentration of the other, real-time quantification of released UDP, read-out: Michaelis-Menten constant): ~470 µM

B1: HAS1: human HA synthase isoform 1 (protein, UniProt Q92839 1-578, looked up)
Hyaluronan synthase 1: MRQQDAPKPTPAACRCSGLARRVLTIAFALLILGLMTWAYAAGVPLASDRYGLLAFGLYGAFLSAHLVAQSLFAYLEHRRVAAAARGPLDAATARSVALTISAYQEDPAYLRQCLASARALLYPRARLRVLMVVDGNRAEDLYMVDMFREVFADEDPATYVWDGNYHQPWEPAAAGAVGAGAYREVEAEDPGRLAVEALVRTRRCVCVAQRWGGKREVMYTAFKALGDSVDYVQVCDSDTRLDPMALLELVRVLDEDPRVGAVGGDVRILNPLDSWVSFLSSLRYWVAFNVERACQSYFHCVSCISGPLGLYRNNLLQQFLEAWYNQKFLGTHCTFGDDRHLTNRMLSMGYATKYTSRSRCYSETPSSFLRWLSQQTRWSKSYFREWLYNALWWHRHHAWMTYEAVVSGLFPFFVAATVLRLFYAGRPWALLWVLLCVQGVALAKAAFAAWLRGCLRMVLLSLYAPLYMCGLLPAKFLALVTMNQSGWGTSGRRKLAANYVPLLPLALWALLLLGGLVRSVAHEARADWSGPSRAAEAYHLAAGAGAYVGYWVAMLTLYWVGVRRLCRRRTGGYRVQV
HA polymer size [3]: several megadaltons

B2: HAS2: human HA synthase isoform 2 (protein, UniProt Q92819 1-552, looked up)
Hyaluronan synthase 2: MHCERFLCILRIIGTTLFGVSLLLGITAAYIVGYQFIQTDNYYFSFGLYGAFLASHLIIQSLFAFLEHRKMKKSLETPIKLNKTVALCIAAYQEDPDYLRKCLQSVKRLTYPGIKVVMVIDGNSEDDLYMMDIFSEVMGRDKSATYIWKNNFHEKGPGETDESHKESSQHVTQLVLSNKSICIMQKWGGKREVMYTAFRALGRSVDYVQVCDSDTMLDPASSVEMVKVLEEDPMVGGVGGDVQILNKYDSWISFLSSVRYWMAFNIERACQSYFGCVQCISGPLGMYRNSLLHEFVEDWYNQEFMGNQCSFGDDRHLTNRVLSLGYATKYTARSKCLTETPIEYLRWLNQQTRWSKSYFREWLYNAMWFHKHHLWMTYEAIITGFFPFFLIATVIQLFYRGKIWNILLFLLTVQLVGLIKSSFASCLRGNIVMVFMSLYSVLYMSSLLPAKMFAIATINKAGWGTSGRKTIVVNFIGLIPVSVWFTILLGGVIFTIYKESKRPFSESKQTVLIVGTLLYACYWVMLLTLYVVLINKCGRRKKGQQYDMVLDV
HA polymer size [3]: several megadaltons

HA production with Mn2+ ([4]; agarose gel assay, Mn2+ versus Mg2+): reduces HA production slightly
catalytic rate suggested by electrophoretic analysis versus rate by UDP quantification ([4]; based on ~1.6 MDa produced within 90 min): about 2 times
size of HA polymers with sustained high substrate ([4]; both substrates (2.5 mM) supplemented at 2, 4, 6 h, UDP converted to UTP): > 1.6 MDa
size of HA polymers synthesized at completion ([4]; in vitro synthesis, relative to HA marker): > 1.6 MDa
HA product length ([4]; produced within 90 min): ~ 1.6 MDa
change of HA size with one substrate limiting ([4]; substrate replenishing, UDP-GlcNAc at 0.1-1 mM): no increase in HA size
maximum HA extension ([4]; without UDP removal, 2.5 mM of both substrates): ~1.6 MDa
activity reduction when manganese is used instead of magnesium as cofactor ([2]; Mn2+ instead of Mg2+): about 30%
B3: X1HAS1: Xenopus laevis HA synthase isoform 1, wild type (Uniprot P13563, SEQ ID NO: 9) (protein, UniProt P13563 1-588, looked up)
Hyaluronan synthase 1: T1 sequence (P13563 1-588)
overall catalytic rate ([2]; UDP release): approximately 30 substrate turnovers per minute
